# Experimental data: paper PMC5849677, “A novel C3d-containing oligomeric vaccine provides insight into the viability of testing human C3d-based vaccines in mice” (Immunobiology, 2018)
# Legend:
# hC3dg (aa 955-1303)-Fc = target: T1, hC3dg (aa 955-1303)-Fc (human, UniProt P01024 955-1303); experiment: SPR; Biacore; hC3d or C3d(g)-Fc fusions immobilised by amine coupling (94.3-96.2 RU); Fc-fusion analytes 0.195-50 nM in HBS-EP+, physiological salt, 360 s injection; steady state affinity model; apparent KD; conditions: both partners purified
# T1 construct: human complement C3, C3dg fragment, aa 955-1303 (of pre-pro C3); also called hC3dg-Fc; hC3d with the g fragment attached
# T1 sequence (P01024 955-1303): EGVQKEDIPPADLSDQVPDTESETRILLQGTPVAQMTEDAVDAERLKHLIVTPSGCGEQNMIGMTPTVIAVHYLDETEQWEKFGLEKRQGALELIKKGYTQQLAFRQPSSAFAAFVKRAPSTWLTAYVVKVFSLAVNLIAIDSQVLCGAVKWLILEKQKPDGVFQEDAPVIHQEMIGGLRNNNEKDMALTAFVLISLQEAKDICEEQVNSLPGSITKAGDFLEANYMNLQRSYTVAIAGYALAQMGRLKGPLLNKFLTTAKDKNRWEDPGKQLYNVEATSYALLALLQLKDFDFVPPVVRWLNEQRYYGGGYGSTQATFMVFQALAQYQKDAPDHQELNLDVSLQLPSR
# mC3d-Fc = target: T2, mC3d-Fc (mouse, UniProt P01027 1002-1303); experiment: as above; conditions: both partners purified
# T2 construct: mouse complement C3, C3d fragment
# T2 sequence (P01027 1002-1303): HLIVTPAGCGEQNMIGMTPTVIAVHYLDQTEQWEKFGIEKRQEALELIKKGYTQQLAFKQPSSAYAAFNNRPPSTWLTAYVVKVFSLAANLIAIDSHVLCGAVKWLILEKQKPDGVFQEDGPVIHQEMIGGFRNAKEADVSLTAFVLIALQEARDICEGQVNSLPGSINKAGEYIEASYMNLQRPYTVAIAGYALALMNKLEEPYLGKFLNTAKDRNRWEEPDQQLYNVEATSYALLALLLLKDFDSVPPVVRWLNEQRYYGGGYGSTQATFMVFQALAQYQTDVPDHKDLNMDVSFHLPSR
binder,measurement,setting,value
"hCR2 (SCR1-4)-Fc (Fc fusion, human complement receptor 2, short consensus repeats 1-4; also called hCR2-Fc; soluble hCR2; source: CHO cells, transfected, purified from tissue culture supernatant) ISCGSPPPILNGRISYYSTPIAVGTVIRYSCSGTFRLIGEKSLLCITKDKVDGTWDKPAPKCEYFNKYSSCPEPIVPGGYKIRGSTPYRHGDSVTFACKTNFSMNGNKSVWCQANNMWGPTRLPTCVSVFPLECPALPMIHNGHHTSENVGSIAPGLSVTYSCESGYLLVGEKIINCLSSGKWSAVPPTCEEARCKSLGRFPNGKVKEPPILRVGVTANFFCDEGYRLQGPPSSRCVIAGQGVAWTKMPVCEE",Kd,hC3dg (aa 955-1303)-Fc,3.1 to 5.1 nM
same,Kd,mC3d-Fc,1.47 ± 0.47 nM
same,fold higher affinity than for hC3d-Fc,mC3d-Fc,4 fold
